The results in this text go back to the NTF2 design screens of Basanta et al. (2020).

The nature of the data set: protease stability score; higher = more stable; yeast display proteolysis, trypsin and chymotrypsin.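 Further: relative to predicted unfolded state with 0 unfolded-like and 1 meaning tenfold more protease.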
As for “SEEERVAKHVSHNLFESLKTGNEEEIEKFFDPNVKVQVGEFEHHGREAVLFWFHEFGIKHIHFHEERVQGDKMHSHLNLIVNGRHISHHIHFHKINGRWHITHQRFH”, the protease stability score is 0.828.

As to “SEEERVLREAIKLLEHLLRTGDEKSFHELFDPDVKIEIGDKEVHGRERWVELYRTWGLENVESHVRVDDERIQGDKMEMDMQLDLRYDGRIDTTKVIILATKINGRWKLEHFEEE”, the protease stability score was determined as 0.028.

Take “SEEERYHDKALKILKESVDTGDPHLLSRYMDPNDRLDINGREIHGMEILLKELLHIMERADHIRIELNDIKMQGDFLELDGILIIHQGEYTLQLRVKLVSLKVDGRWLHHSIEVK”: the protease stability score came to 0.171.

“SEEESKERHNEKFLKTVHKTGDEHSWRKMLDPDVRVEYGDKHDHGWEAIERFRKELGIERIHIDDRKIRHNEVVNGQVYLHEELVGTVNGVHVQVKMLIIFHKVDGKWHVELVQIN”: the protease stability score worked out at 0.559.

The sequence “SEEETDAKIAYHLEYELLKTGDEKMIHENLDPDARFISDVNGVEHRDHGRENFSRSMSEWLKRFGVDHMDIRHVRFFNGKIDMEVEINVNGVRIDLHLHSHKINGQWIITRVDIRID” showed a protease stability score of 1.24.

“SEEETFTEIAVKLLMHLWNTGDENELMRNFDPNARMDINGQEYHGREDIVRRLDEFKKRLGVERVHFELNDIRPVNGRADVDGIVIFNGQKLRVRHIVWKINGRWYLEEFEVR” came in with a protease stability score of 1.44.

In turn, “SEEETHVKEAVKRSVDFLETGDERLFRELFDPNVRLIVNVGNKRVELHGWEEVVRWLREARLHRVILRTIRIQGDKAEVEGDVDGEINGRHDLHIIEWHFIVINGRFHSVSVRIE” came in with a protease stability score of 1.05.

“SEEETMERLSIEITLEMLKTGDETEILKNMDPDARVIVGDKVYHGREHVIELWRRLGVKHSEPKHVYVINGRVHIDMEVHVDGKRFHVHIISHKINGQWSITNVKLEKE” yielded a protease stability score of 2.02.

“SEEETRLEKYLRILLEMWKTGNEEWMFKYADPDARLQVGDKEFHGREHIMKFLKDWLDKAGVKHEEDRREEYIGDKLRVDSERNVNGVENRVILIFVVINGRYREFIIIIR” returned a protease stability score of 1.47.

“SEEEVLAHKFLRTWVESMNTGDEKSIMRLFDPNVRYHVGDKEIHGMDEHREEFTELLHRVKNVRFFFDEHDMRNIDGRIEMKGRLEIIQGEYHESTTVELIITKVNGQWVWESVFIK”: the protease stability score was 0.488.

In turn, “SEEEVQFRRFFEAFLHFWETGDEKMLKTLLDPHVKFTVHFENHRSHYHGREEFTKFLHELGVKHFELDRVRIEFQGDKIRIEIDGVLLYDGRFHESHIILIIVKVDGRWVIHQLHIQIE” registered a protease stability score of 2.15.

“SEEEWLTEYIWRVFIRLLLTGDERAINKLLDPHVQVDVGDKRIHGRELLSHIWRTEAEEIRHHIEVKRFHSQGEKVHHDVRITIIINGQVHRIEAHIHLFIYDGRITHIEVEFR”: the protease stability score was found to be 1.36.

“SEEEYWAKEMAILLDIAWYTGDEERFEEYVDPNTRIDFDGRVFHGREFLHHFRERVDHMREVRSRIESVHKQGDKLRVHGHLIIQGVIDGVDTQQRFKVHFIMEKVDGRWIFREEIYK”: the protease stability score worked out at 1.51.

“SEEFEILFRLLEELDRAFETGDFKRFMELADPHTRLDVGEFHHWGREKVLEFWRHWRVKHVRVEFKRIDYQGDKLHTDGILRHTGEINGQETHEETRTNIHLIVINGRMHALEVRII” had a protease stability score of 2.01.

Sequence “SEEFEIYKRASELLAHLMLTGDFDTMNKLMDPNVRLDVDGVDFHGRELVNRKFQHMRIEHTHIERVIWIGDKVHVHTTMTGNIDGRRDERKMEIVSHKVDGRWHVHSVIIL” had a protease stability score of 1.12.

With “SEEHDKLQRLIRQWWSEFETGDEDKLTEMFDPHARLHIDGRDVIGRENVSKFVFDFFFEMRIHRTHIEHVDAQGDFLILHYHVRGTVNGRESDIHVLIIFTVVNGRMKSVHVHNE”, the protease stability score came out at 1.38.

“SEEHEDAEKWIRILLRDLKTGDEESLFQLLDPHTKLEVGDKHFHGREQVMRYVLHELKRVDHMEVELKHHHIQGEKAHLDIEVHNIFDGRVFVKHVHIDSKKINGRWRQEKIYIE” returned a protease stability score of 1.33.

“SEEHEDAHEMFELWSILLITGDERILHQLMDPDAKTTIDGQEFHGREKLIEVFREFLKRIDHIHEVEVTRMTFFDGRLHINLRVHVTINGVHRQFRVIIIIVKIDGRWVIQSQEIV” registered a protease stability score of 1.63.

In turn, “SEEHEDIKKFLDDLHSAWNTGDWKALEHMLDPHVKFEINGRNFVGREEVRKLLEQIRLHPRSEIKDVRMQGEFVIVDGRVKIKINVNGREHHEVQEIILYLRKVNGKWYIEEIEIR” had a protease stability score of 1.54.

As to “SEEHEEAEHWVRLFIEFMLTGDFDEYRQLMDPNDYIEVGDKSLIGMENWHHLLNRVKNLTIRVKRVRVRVVNGRIHVEMDVRDIINGQEVETRIEMVAVKVNGRWLLKTVHLERE”, the protease stability score is 1.74.

In turn, “SEEHEEERHHVEDLLRALWTGNEEHLKKLADPHMRTILIVNGKQLDLHGWRDMWRALREIRERLGIDHEHIHRSRIYNGRLEIDSRVEVDGVHHIVKIRVDVIDGKNHEFKIEFR” yielded a protease stability score of 1.63.

In turn, “SEEHEEVERLMRIYFEERLTGDWDRWLSNVDPHTRIIIEIGDKRIELHGWKDFLRFLRFIKNITIHHVHIRHVDVQGDKAHVDEEIDVTIGDKRTKITHEMIIIVVNGRIKHVYERYI” gave a protease stability score of 1.44.

In turn, “SEEHEEVHKVIEMLVRHARTGDEDYLRNQFDPNARVRFNGKDRHGRESLDEMLKQFDVIKEVRIKRIDVQGEKIHADIEIRGRYNGQEINTESHIVFKKINGQWIIEEVEFK” registered a protease stability score of 1.6.

“SEEHEFWERLARLTLHWLETGDWDKMNKNADPNVRTEVNGQELHGRESTTEIMRRDEKFFKNARFHLESMDVQGDKVHLIFEVDYNGRTIRRHLDWVIINGRFKEIRVEIR” came in with a protease stability score of 1.17.

Turning to “SEEHEHIRRVWEEIRRVLETGDEEALMRMIDPNVRIRNVQGDKELDIHGRESVVRRILKIFQEIWFDFEDRHIDIQGDKLHIEGHLILRVNGREHRLDVREVWVVVNGVIHTVEFMVE”, the protease stability score is 1.29.

As for “SEEHEIIERMMRLFLNYYFTGDEESIQKNADPDVKLNINGRDIHGRERIAEHLFDEIKHLRWHHLHIHSFIVQGEKARVDTRFDGEVDGVRTIFETEIILVVVNGRMKSIEVHRR”, the protease stability score is 1.28.

As to “SEEHEISERLAWMIFELYRTGNEQSIRHLMDPRARIDVNGKEIHGRHIWKERFEEHLVFFKNLRFHLDDVDVQGDKIDIHGTNRFDGRHVRFDLHIHVVDGRLKVITVRIDER”, the protease stability score was found to be 1.55.

On to “SEEHEKLHHLMELMLNAITTGDWEIIEHLADPNVRIDQGEWHDHGREKLIHIHELVRERMGIKHVEVRDSRMFHINGVVVIILRLDLNVNGKHRFEILRLQFRKVDGQWVMHSLDIELR”, for which the protease stability score was found to be 1.74.

As to “SEEHEKTRRALELWIDVMKTGDPEHILRLLDPHTKIHQGEFELHGRHDAHRWLSRLGVERIHFELKDVRYFDGQILVDGVIFFNGRESRVNVVAMKVNGRWFVDSLEIQ”, the protease stability score was determined as 0.755.

In turn, “SEEHELAESMAEEVLRSFLTGDEDTLHELFDPHVRVNYNGKVFHGREKLIKILNELRWDHTTVKRIEIRYYGDKVEVVLHVEIHFEINGQRISHRVDIIIIAEKVNGRWRVRDFIYIEK” returned a protease stability score of 1.35.

“SEEHELSHHWADLMFHWMLTGDEEMFEHFADPHVRLHVNGKDIHGREKFVEWLREELEKIKNLTYRLHDVEIQGDKVHLTVKVDVNGKRLDTRVHIDLVNGRVRSIEIRHR” returned a protease stability score of 1.42.

With “SEEHEMLKRIMELVIHLFLTGNEDWLRELIDPDTRLHINGVDNHGREEAIRWLHEYNKHLRIHTMEIKRLDVVNGQAHSHVHHEWTINGKQHETEMELIVVVVNGKVKSQELRIK”, the protease stability score stood at 0.629.

“SEEHEQLLRMAQIWIKNWLTGDEKSMIELADPRVLFIYGDKIHHGWEEMSKFLHRLMEEIRIEDLRIDSFRAYNGRVEHDTTIDVEIGDKRINLKHHFHLDVVDGRIRHVKVKID” gave a protease stability score of 0.726.

Consider “SEEHERIKRASEEIWRMSETGDFETFFNNFDPNARSDVDGVFNHGREELHRVLLEFWHKLGLTRIDAKVHDDHSFENHLKVDLEERFDGRTVEVRIISRKYDGRWFYTDLIIIRR”, for which the protease stability score came out at 0.169.

With “SEEHESSQKAIELLWHSMETGDEKLTEDFADPHVRLEFNGVRFHGRDQMNEIIHRQLREMRLKSIHLHHIYSFNGRVHIHGEVIGRVDGRELSHEMEIVAVKVDGKWVLKSLRIH”, the protease stability score was 1.2.

Sequence “SEEHETMNKLASDLIHDWLTGDWENTKELLDPHVKIDERVNGKNHQHHGREELVRILRERHEKIKGLRISIHHWEVINGRLHMDLRLHINGKTFSVEIHITIVDGRVKHIHVDIN” came in with a protease stability score of 1.22.

For the sequence “SEEHEVAKDAFDVTSHSWKTGDEELFRKLLDPNARFEIDGRDLHGRELVIKFIIEIRWEHTHVEEINVQGDKIIIKSRMEIHYNGVHINITVIVHVRKVNGRWITTHYIFI”, the protease stability score came out at 1.67.

Regarding “SEEHHDAERAMEEFLKVMNTGNEKLLRDLIDPNVRTEINGQEIIGWKSMHRIMREWGVDNIRVHLRRLEVQGEKLHLEEELNVNGRTSKMEIVALKINGRWVVSEIRFH”, the protease stability score was determined as 2.03.

For “SEEHHHYSELMHQLTEWMLTGNFEEWARYADPNTRARIDIDGRRLEVHGREEMMRVLKEHRKLMGVDHIEVRDRHVFNGRNELIFILHQGDKERHSHITIVVINGQIKEVDIILR”, the protease stability score turned out to be 1.61.

Take “SEEHHIIHKFLEDFLRSWITGDEKSMKELLDPHAKVDIRVNGRDVHPHGWEFLEWYKRFFKNAQFRVHDIDVQGNKVHLITEVVVNGQKEEMHIHLQVVDGRAERVETRIH”: the protease stability score stood at 1.9.

Turning to “SEEHHSEKLAIHLSKEISHTGDETWIKKMLDPNVKIVIGDKEFHGMENFVTHWHRLVKELGVDRVRHRVEDSDVQGDKLTMHVEIEVNGRKVESHIIAHKFNGRWLVKEIIFH”, the protease stability score was determined as 1.23.

As for “SEEHKEAREFLEEWITFIHTGDEDMIHKMLDPDTRSNINGRDLHGRELAVKIIIEEVRRYRGVQIRMEREHVVDGRMESTIRVHQGEKEFEVIVHFVKINGRWRLKWIEIR”, the protease stability score stood at 1.3.

Regarding “SEEHKELRELIRITFEDLFTGDEDAFMRLFDPHTILHIGEKRYIGREIIIHALRWLGVDHMEIKHIDIQGEKVDMHMHLKVGDKSWTMHLHIEKFNGQWHSKHIEIR”, the protease stability score is 1.95.

“SEEHKEMKRSLDESAKALTTGDEEHVTKMVDPNVRIIIGDKTLIGMEKWHEFLKEMRVSIHHIIFRDSDIQGDKIRLDVEVDIRVHYNGREESSKIKSKIILLKFNGKWIIHAVEFD” showed a protease stability score of 0.833.

“SEEHKLLRETLEILWDTIETGDEHKLSNLLDPRARLRVGDKEYHGREEVMRIMTEIRVDRFRLHSITLVDGRAIIHTEIDVRVNGQRFRTSVTIFLIKVDGRWFVESLQID” yielded a protease stability score of 2.4.

Regarding “SEEHKMVRDVTEDWLRLLLTGDEERLAELLDPNTRFLINGKEHHGREEAIEEWRHLRVDDFRIKSIDIQYQGEKAYVDIDGRQRGKVNGKKQDRDIKIHFHILKINGRWTIHEVRVEIE”, the protease stability score turned out to be 1.56.

As to “SEEHKQIEEFLTRFYRFKKTGDEKMLSRMADPNYKMDIDGQDVHGREEYEEASRRFDHIHHIKLRQFERQGNKVYLDIEVDGEVNGRQTKHTSTLILLKIDGRWYIEHVHWE”, the protease stability score came to 0.722.
